Data as given in the RNAGym collection of RNA variant scans (doi:10.1093/molbev/msab373).

B1: Azoarcus group I ribozyme (parent)
chain: GUGCCUUGCGCCGGGAAACCACGCAAGGGAUGGUGUCAAAUUCGGCGAAACCUAAGCGCCCGCCCGGGCGUAUGGCAACGCCGAGCCAAGCUUCGGCGCCUGCGCCGAUGAAGGUGUAGAGACUAGACGGCACCCACCUAAGGCAAACGCUAUGGUGAAGGCAUAGUCCAGGGAGUGGCGAAAGUCACACAAACCGG

Variants of: B1
Assay: reverse-splicing fitness (ratio to wild type); higher = more active; in vitro selection; Mg2+ level not given
Procedure, shortened: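 An in vitro group I ribozyme library with randomized positions was T7-transcribed and gel-purified. In triplicate, 10 pmol RNA in EPPS pH 7.5 was reacted with 50 pmoles of a 30-nt RNA substrate for 1 h at 37 °C across several added MgCl2 levels (1–48 mM), then stopped with EDTA. Products were reverse transcribed from a substrate-complementary primer, PCR-amplified and sequenced (HiSeq 4000). Fitness is a variant's read proportion after selection over that before, normalised to wild type.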

Row | Variant | reverse-splicing fitness
1 | C82G A111G A145U C150A U176G | 0.0136
2 | C82G A111G A145U C150A U176C | 0.0339
3 | C82G A111G A145U C150A U176A | 0.03
4 | C82G A111G A145U C150U C169A | 0.00966
5 | C82G A111G A145U C150U C169G | 0.00988
6 | C82G A111G A145U C150U C169U | 0.0113
7 | C82G A111U | 0.387
8 | C82G A111U A120C A145G C150A C169A U176G | 0.00968
9 | C82G A111U A120C A145G C150A C169A U176A | 0.02
10 | C82G A111U A120C A145G C150A C169A U176C | 0.026
11 | C82G A111G A145U C169A U176A | 0.0133
12 | C82G A111G A145U C169A U176G | 0.0052
13 | C82G A111G A145U C169A U176C | 0.0135
14 | C82G A111G A145U C150U U176A | 0.154
15 | C82G A111G A145U C150U U176C | 0.165
16 | C82G A111G A145U C150U U176G | 0.0614
17 | C82G A111U A120C A145U C150G C169U U176G | 0.00561
18 | C82G A111U A120C A145U C150G C169U U176C | 0.0123
19 | C82G A111U A120C A145U C150G C169U U176A | 0.0083
20 | C82G A111U A120C A145C C150A | 0.0109
21 | C82G A111U A120C A145C C150U | 0.0168

Row | Variant | reverse-splicing fitness
22 | C82G A111U A120C A145C C150G | 0.0104
23 | C82G A111U A120C A145U C150G C169A U176C | 0.0107
24 | C82G A111U A120C A145U C150G C169A U176A | 0.0121
25 | C82G A111U A120C A145U C150G C169A U176G | 0.00704
26 | C82G A111G A145G C150U C169G U176A | 0.017
27 | C82G A111G A145G C150U C169G U176G | 0.00635
28 | C82G A111G A145G C150U C169G U176C | 0.0216
29 | C82G A111U A120C A145C C150U C169A U176G | 0.00651
30 | C82G A111U A120C A145C C150U C169A U176A | 0.0164
31 | C82G A111U A120C A145C C150U C169A U176C | 0.0115
32 | C82G A111U A120C A145C C150G C169G U176A | 0.0106
33 | C82G A111U A120C A145C C150G C169G U176C | 0.00909
34 | C82G A111U A120C A145C C150G C169G U176G | 0.00606
35 | C82G A111G A145G C150U U176A | 0.174
36 | C82G A111G A145G C150U U176G | 0.068
37 | C82G A111G A145G C150U U176C | 0.213
38 | C82G A111G A145U C150A C169A U176A | 0.0154
39 | C82G A111G A145U C150A C169A U176G | 0.00645
40 | C82G A111G A145U C150A C169A U176C | 0.0131
41 | C82G A111G C150U C169A | 0.0104
42 | C82G A111G C150U C169U | 0.0123

Row | Variant | reverse-splicing fitness
43 | C82G A111G C150U C169G | 0.00932
44 | C82G A111U A120C A145G C169A U176A | 0.0222
45 | C82G A111U A120C A145G C169A U176G | 0.00615
46 | C82G A111U A120C A145G C169A U176C | 0.0267
47 | C82G A111G A145U C169G U176G | 0.00507
48 | C82G A111G A145U C169G U176A | 0.0136
49 | C82G A111G A145U C169G U176C | 0.0147
50 | C82G A111U A120C A145G C150U U176A | 0.015
51 | C82G A111U A120C A145G C150U U176G | 0.00905
52 | C82G A111U A120C A145G C150U U176C | 0.0292
53 | C82G A111U A120C A145C C150A C169U U176A | 0.0126
54 | C82G A111U A120C A145C C150A C169U U176C | 0.0105
55 | C82G A111U A120C A145C C150A C169U U176G | 0.00605
56 | C82G A111U A120C A145G C150G U176C | 0.0118
57 | C82G A111U A120C A145G C150G U176G | 0.00789
58 | C82G A111U A120C A145G C150G U176A | 0.00813
59 | C82G A111U A120C A145U C150A C169A U176A | 0.0187
60 | C82G A111U A120C A145U C150A C169A U176C | 0.0144
61 | C82G A111U A120C A145U C150A C169A U176G | 0.00709
62 | C82G A111U A120C A145C C150U C169U U176G | 0.00678
63 | C82G A111U A120C A145C C150U C169U U176C | 0.0118

Row | Variant | reverse-splicing fitness
64 | C82G A111U A120C A145C C150U C169U U176A | 0.0127
65 | C82G A111U A120C A145U C150A C169A | 0.0103
66 | C82G A111U A120C A145U C150A C169U | 0.00991
67 | C82G A111U A120C A145U C150A C169G | 0.00901
68 | C82G A111G C169G U176C | 0.0239
69 | C82G A111G C169G U176A | 0.0197
70 | C82G A111G C169G U176G | 0.0047
71 | C82G A111G A145U C150G C169U U176G | 0.00577
72 | C82G A111G A145U C150G C169U U176C | 0.016
73 | C82G A111G A145U C150G C169U U176A | 0.00966
74 | C82G A111U A120C A145G C150U C169U U176G | 0.00687
75 | C82G A111U A120C A145G C150U C169U U176A | 0.0137
76 | C82G A111U A120C A145G C150U C169U U176C | 0.0146
77 | C82G A111G C150A C169G U176G | 0.00751
78 | C82G A111G C150A C169G U176A | 0.0217
79 | C82G A111G C150A C169G U176C | 0.0228
80 | C82G A111G A145U C150G C169A U176G | 0.00637
81 | C82G A111G A145U C150G C169A U176A | 0.0126
82 | C82G A111G A145U C150G C169A U176C | 0.0155
83 | C82G A111G A145U C150G C169G U176A | 0.00911
